US20230159935, “[…] BIFUNCTIONAL […] AND TRIFUNCTIONAL […] TARGETING Tau” (UNIVERSITY OF FLORIDA RESEARCH FOUNDATION, INCORPORATED, published 2023)

B1: BW1 (ssDNA)
DNA: TCACCTGAGACTTGACGATGGCATCACTCCCCCCCACCTATTACATCATCATAAATTGAGTGCTATCGTCTGTCCA
B2: BW4 (ssDNA)
DNA: TCACCTGAGACTTGACGATGGTTTAACTCCCCCACGCCCCCCGCCAACCCATCTCCAGAGTGCTATCGTCTGTCCA
B3: BW7 (ssDNA)
DNA: TCACCTGAGACTTGACGATGGTGACCACCCCCCACGCACACACACCTCTTCCATCCTGAGTGCTATCGTCTGTCCA
B4: BW2 (ssDNA)
DNA: TCACCTGAGACTTGACGATGGCCTCCCCCTCACGCACTCTTCCGTTTCTTCTTATCTGAGTGCTATCGTCTGTCCA
B5: BW10 (ssDNA)
DNA: TCACCTGAGACTTGACGATGGCAATCCCCCCGACACCGAATCCTAAGCGAACAACGCGAGTGCTATCGTCTGTCCA
B6: BW5 (ssDNA)
DNA: TCACCTGAGACTTGACGATGGTACGACGGCCCCCCGATTATGCGACTACTTGATTTGAGTGCTATCGTCTGTCCA
B7: Circular Tau-TfR bispecific aptamer (structured_DNA)
DNA: TGACTGATTTACGGAAGCTGAATAAGGACTGCTTAGGATTGCGATGATTCAGCTTCCGTAAATCAGTCAGAAGGCGTGGTACCACGCTTTC
B8: BW1c (ssDNA)
DNA: GACGATAGCATCACTCCCCCCCACCTATTACATCATCATAAATTGAGTGCTATCGTC
B9: BW3 (ssDNA)
DNA: TCACCTGAGACTTGACGATGGAACTCCCCCCACCATTATCAGCGCACCACCATTGTAGAGTGCTATCGTCTGTCCA
B10: BW9 (ssDNA)
DNA: TCACCTGAGACTTGACGATGGGAACAAACACCGCGACCACCCCCCCACTTAACTCCTGAGTGCTATCGTCTGTCCA
B11: IT2a Tau aptamer (13-base extended) (ssDNA)
DNA: TGACTGATTTACGGAAGCTGAATAAGGACTGCTTAGGATTGCGATGATTCAGCTTC
B12: BW6 (ssDNA)
DNA: TCACCTGAGACTTGACGATGGTCAGAACGACGCGCCCCCCACCTCATTCATTATTTTGAGTGCTATCGTCTGTCCA
B13: BW8 (ssDNA)
DNA: TCACCTGAGACTTGACGATGGCACTACCCCTCCCTACTAAGCACGGTATCTTGTACTGAGTGCTATCGTCTGTCCA

Key:
Tau441 (2N4R tau) [1] = target: T1, Tau441 (2N4R tau) (Homo sapiens, UniProt P10636-8 P10636-8:1-441); assay: dot blot, 250 nM; best flow cytometry shift; Kd only in figure; settings: tags: N-terminal His-tag, SignalChem (biotin-labelled for functional SELEX and BLI); label: FAM or 5' Cy5
T1 sequence (P10636 other isoform, or with tags, fused parts or gaps): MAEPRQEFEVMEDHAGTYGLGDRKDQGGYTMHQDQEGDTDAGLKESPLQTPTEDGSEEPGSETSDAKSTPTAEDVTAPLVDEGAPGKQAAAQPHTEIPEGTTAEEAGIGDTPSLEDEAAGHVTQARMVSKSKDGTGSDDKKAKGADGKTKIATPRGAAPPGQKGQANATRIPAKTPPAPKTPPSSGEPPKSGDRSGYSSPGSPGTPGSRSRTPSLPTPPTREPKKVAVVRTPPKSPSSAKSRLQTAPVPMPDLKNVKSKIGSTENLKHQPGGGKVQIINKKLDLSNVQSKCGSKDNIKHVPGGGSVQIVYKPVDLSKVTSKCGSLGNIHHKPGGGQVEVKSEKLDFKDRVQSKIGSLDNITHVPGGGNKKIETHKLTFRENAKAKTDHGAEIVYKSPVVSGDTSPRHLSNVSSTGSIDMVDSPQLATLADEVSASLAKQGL
Method: (§1) FIG. 38A is the flow cytometry results analyzing primary binding between aptamer candidates and Tau 441. FIG. 38B is a dot blot assay showing aptamer binding specificity. FIG. 38A Primary binding analysis between aptamer candidates and Tau 441. FIG. 38B Aptamers binding specificity by dot blot assay. The nitrocellulose membranes were socked in methanol until becoming wet (1 min) then the membranes were washed with PBST solution for 5 mins. BSA, Casein, IgG, Tau and P-Tau (1 μg per protein) were respectively immobilized as striped dots on the NC membranes by air-drying. The membranes were blocked with 1% fat-free milk in PBST for 1 hour and incubated with heat-denatured aptamers (250 nM) labeled with FAM for 1 hour at room temperature. Control DNA were random sequence DNA with FAM label. The membranes were washed three times with TBST. Dots were scanned by Typhoon Imaging System (Amersham Biosciences).
The preliminary investigation of binding ability between aptamers and Tau441 was validated by flow cytometry. […] Furthermore, the binding specificity of the selected tau aptamers to full-length Tau441 protein was confirmed by dot blotting by incubating each of the FAM-labeled aptamers with nitrocellulose membranes which have already been immobilized with either target Tau441 protein or nontarget proteins (FIG. 38B). […]

[2] = target: T2, Bovine serum albumin (BSA) (Bos taurus, UniProt P02769 P02769:25-607); assay: dot blot
T2 sequence (P02769 25-607, one chain of several): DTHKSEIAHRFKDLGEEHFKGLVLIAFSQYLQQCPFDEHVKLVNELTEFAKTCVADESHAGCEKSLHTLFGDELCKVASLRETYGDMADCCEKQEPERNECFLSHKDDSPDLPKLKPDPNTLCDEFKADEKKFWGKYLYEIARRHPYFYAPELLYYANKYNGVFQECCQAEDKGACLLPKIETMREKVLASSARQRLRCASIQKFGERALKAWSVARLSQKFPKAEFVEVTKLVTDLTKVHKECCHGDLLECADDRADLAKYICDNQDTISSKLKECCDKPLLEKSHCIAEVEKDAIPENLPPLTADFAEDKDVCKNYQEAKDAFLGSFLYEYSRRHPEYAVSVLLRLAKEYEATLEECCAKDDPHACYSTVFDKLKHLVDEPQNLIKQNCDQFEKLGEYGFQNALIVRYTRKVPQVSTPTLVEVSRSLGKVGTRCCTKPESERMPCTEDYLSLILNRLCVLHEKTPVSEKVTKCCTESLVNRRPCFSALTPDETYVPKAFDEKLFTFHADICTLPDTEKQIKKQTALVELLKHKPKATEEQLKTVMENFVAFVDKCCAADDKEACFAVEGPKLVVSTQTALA
Method: as §1
(§2) The preliminary investigation of binding ability between aptamers and Tau441 was validated by flow cytometry. […] Furthermore, the binding specificity of the selected tau aptamers to full-length Tau441 protein was confirmed by dot blotting by incubating each of the FAM-labeled aptamers with nitrocellulose membranes which have already been immobilized with either target Tau441 protein or nontarget proteins (FIG. 38B). […] No cross-reactivity was observed between the aptamers and the nontarget proteins, including: α casein, β casein, BSA (bovine serum albumin), and IgG (immunoglobin G). Particularly, the membranes were blocked by milk after immobilizing with each protein which further illustrated the strong specificity of the obtained aptamers.

Tau441 (2N4R tau) [3] = target: T1, Tau441 (2N4R tau); assay: dot blot, 250 nM; settings: tags: N-terminal His-tag, SignalChem (biotin-labelled for functional SELEX and BLI); label: FAM
Method: as §1, §2

Tau441 (2N4R tau) [4] = target: T1, Tau441 (2N4R tau); assay: EMSA; 400 nM aptamer, 0.2 mg/mL protein, 4 C; settings: tags: N-terminal His-tag, SignalChem (biotin-labelled for functional SELEX and BLI)
Method: (§3) To determine the specificity of the circular aptamer against Tau441 protein, 5 μL of 400 nM Tau (IT2a) aptamer or circular aptamer were first incubated with 0.2 mg/mL target Tau441 protein or control proteins (S100B, BSA) at 4° C. for 30 minutes. Then, each sample was loaded onto an 8% native PAGE gel. The gel was run in 1×TBE at 70 V for 10 minutes and 150 V for 40 minutes. Finally, the gel was stained with Coomassie blue for protein detection and scanned in the fluorescein channel using Typhoon for aptamer detection.
(§4) After interaction, each sample was loaded onto the nondenaturing gel for protein detection with Coomassie Brilliant Blue staining (FIG. 13A) and aptamer fluorescence (FIG. 13B) detection. […] Five microliters of 400 nM Tau (IT2a) aptamer or circular aptamer was first incubated with 0.2 mg/mL target Tau441 protein or control proteins at 4° C. for 30 minutes. […] For FIG. 13A and FIG. 13 B, Lanes 1 and 6: Ladder; Lane 2: IT2a aptamer; Lane 3: IT2a aptamer+Tau441 (67 kDa); Lane 4: IT2a aptamer+S100B (9 kDa); Lane 5: IT2a aptamer+BSA (66 kDa); Lane 7: Circular aptamer; Lane 8: Circular aptamer+Tau411 (67 kDa); Lane 9: Circular aptamer+S100B (9 kDa); Lane 10: Circular aptamer+BSA (66 kDa).

[5] = target: T2, Bovine serum albumin (BSA); assay: EMSA; specificity control; settings: label: one or two FITC-dT
Method: as §3, §4

Tau441 (2N4R tau) [6] = target: T1, Tau441 (2N4R tau); assay: dot blot, 100 nM; stronger than BW1, BW1a, BW1b; settings: tags: N-terminal His-tag, SignalChem (biotin-labelled for functional SELEX and BLI); label: 5' Cy5
Method: The nitrocellulose membranes were socked in methanol till it becomes wet (1 min) then the membranes were washed with TBST solution for 5 mins. Tau protein (stripped band 0.5 μg) were dripped on the NC membranes in every dot and then waited to dry (2 mins). The membranes were blocked with 1% fat-free milk in TBST for 1 hour and were respectively incubated with series of heat denatured aptamers (250 nM) for 1 hour in blocking buffer (contain 0.5 mM Mg²⁺) at room temperature. Next the membrane was washed for three times by TBST, 5 min for each time. Dots were scanned simultaneously by a Typhoon Imaging System (Amersham Biosciences).

[7] = target: T2, Bovine serum albumin (BSA); assay: EMSA; profile stated same as circular aptamer; settings: label: FITC-dT near 3' end; hairpin
Method: as §3, §4

Binder | binding result ([2]; label: FAM) | binding result (Tau441 (2N4R tau) [3]) | also measured
B1 |  |  | binding result (Tau441 (2N4R tau) [1]): binds; binding result ([2]; label: FAM or 5' Cy5): no binding
B2 | no binding | binds | 
B3 | no binding | binds | 
B4 | no binding | binds | 
B5 | no binding | binds | 
B6 | no binding | binds | 
B7 |  |  | binding result (Tau441 (2N4R tau) [4]; label: one or two FITC-dT): binds; binding result [5]: no binding
B8 |  |  | binding result (Tau441 (2N4R tau) [6]): binds
B9 | no binding | binds | 
B10 | no binding | binds | 
B11 |  |  | binding result (Tau441 (2N4R tau) [4]; label: FITC-dT near 3' end, hairpin): binds; binding result [7]: no binding
B12 | no binding | binds | 
B13 | no binding | binds | 
